Laboratory results from patent US9074002B2, “PTP1B inhibitors” (Cold Spring Harbor Laboratory, priority 2009, dated 2015).

Assays:
[1] = molecular target: T1, PTP1B under reducing condition (Homo sapiens, UniProt P18031); experiment: In vitro binding assay, purified recombinant PTP1B (37 kDa) and purified scFv, Ni-NTA pull down, reducing condition; details: with 2 mM TCEP; FIG. 9
T1 construct: made in house; host or cells: E. coli BL21 (pET19b)
T1 sequence (P18031 3-277 limits assumed): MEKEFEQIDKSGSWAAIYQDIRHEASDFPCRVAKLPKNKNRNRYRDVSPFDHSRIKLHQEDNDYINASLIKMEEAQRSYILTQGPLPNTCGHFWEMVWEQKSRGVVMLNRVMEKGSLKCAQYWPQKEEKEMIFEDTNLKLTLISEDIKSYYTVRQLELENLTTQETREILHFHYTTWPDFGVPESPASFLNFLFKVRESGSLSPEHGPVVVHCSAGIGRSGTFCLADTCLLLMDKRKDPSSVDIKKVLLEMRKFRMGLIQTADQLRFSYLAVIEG
Method: (§1) They established conditions in which PTP1B is reversibly oxidized by H2O2 in solution (FIG. 8). An artificial protein substrate RCML, in which tyrosine was phosphorylated with ^32P using recombinant GST-FER kinase was used in this assay to measure the phosphatase activity. Recombinant PTP (37 kDa) was incubated with increasing concentration (50 μM to 100 mM) of H2O2. A quick buffer exchange was done to remove the H2O2 and reducing agent (TCEP) was added to reactivate the enzyme.
(§2) In the in vitro binding assay, purified PTP was reversibly oxidized with […] followed by a quick buffer exchange to remove H2O2 (FIG. 8). Purified scFv was incubated in molar excess with PTP1B-OX or with PTP under reducing condition (with 2 mM TCEP) in binding buffer (20 mM HEPES, pH 7.4, 300 mM NaCl, 0.05% BSA, 0.05% Tween-20 and 10 mM imidazole) for 2 hours at 4° C. Ni-NTA agarose was added and incubated for one hour at 4° C. Protein complex bound to Ni-NTA agarose beads was pulled down and washed (three times, 5 minutes each, at 4° C.) with binding buffer containing 20 mM imidazole to reduce non-specific binding to the beads. The protein complex was eluted from the Ni-NTA agarose beads with 500 mM imidazole (in binding buffer, pH 7.4) for 15 minutes at 4° C. with gentle shaking. The complex was separated by SDS-PAGE and PTP1B was detected with anti-PTP1B antibody (FG6) and scFv was detected with anti-HA antibody [anti-HA (3F10)-HRP, Roche] by immunoblotting. Eight different scFvs (scFvs 20, 21, 24, 28, 45, 48, 57, and 105), expressed and purified from bacterial cultures were tested by this in vitro binding experiment.

PTP1B (reduced, active) = molecular target: T2, PTP1B (reduced, active) (Homo sapiens, UniProt P18031); experiment: Direct effect of scFvs/antibodies on PTP1B phosphatase activity (32P-pTyr-RCML substrate); type: biochemical; details: 32P-labeled pTyr-RCML substrate, FIG. 1
T2 construct: made in house; host or cells: E. coli BL21 (pET19b)
T2 sequence (P18031 3-277 limits assumed): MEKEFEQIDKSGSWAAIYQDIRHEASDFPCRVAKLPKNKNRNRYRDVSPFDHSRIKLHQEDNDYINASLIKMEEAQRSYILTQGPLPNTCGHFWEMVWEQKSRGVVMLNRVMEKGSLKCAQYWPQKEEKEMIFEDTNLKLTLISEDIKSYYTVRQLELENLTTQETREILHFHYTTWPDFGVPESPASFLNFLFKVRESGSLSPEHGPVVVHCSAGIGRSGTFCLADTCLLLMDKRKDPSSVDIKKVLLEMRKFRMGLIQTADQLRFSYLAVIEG
Method: Applicant's hypothesis was that scFvs that are able to bind to and stabilize the oxidized conformation of PTP1B in solution would inhibit reactivation by reducing agent, but have no direct inhibitory effect on phosphatase activity in assays in vitro. Activity was measured using ^32P-labeled pTyr-Reduced Carboxamidomethylated and Maleylated Lysozyme as substrate. Applicant established conditions in which wild type PTP1B could be reversibly oxidized in vitro. PTP1B was inactivated following addition of H2O2. […] Applicant validated this approach further, by testing the effects of expressing one of the scFvs (scFv45) as a single chain antibody fragment “intrabody” to PTP1B, using 293T cells as the expression system. This intrabody was expressed transiently and then tested for effects on insulin signaling, focusing initially on the tyrosine phosphorylation status of the beta-subunit of the insulin receptor and insulin receptor substrate (IRS-1).
Reduced carboxamidomethylated and maleylated lysozyme (RCML) was labeled with ^32P using recombinant GST-FER kinase to stoichiometries up to 0.8 (mol ^32P incorporated/mol of protein). This ^32P-Labeled phospho-tyrosyl RCML was used as the substrate in the in-solution phosphatase assay for screening the conformation sensor scFvs. Recombinant PTP1B was reversibly oxidized and transiently inactivated with H2O2 (5× molar excess of the protein). […] Purified bacterially expressed scFvs (100× molar excess of PTP1B) were incubated with PTP after H2O2 treatment and its removal and the effect of individual scFv on stabilizing the reversibly oxidized conformation was assessed by the phosphatase assay under reducing condition.
In order to screen the isolated scFvs for those that inhibit reactivation of PTP1B-OX by reducing agent, but have no direct inhibitory effect on phosphatase activity in assays in vitro, the effect of six scFvs (scFv20, scFv34, scFv45, scFv57, scFv64 and scFv106) on PTP1B activity was determined. PTP1B activity was measured using 32P-labeled pTyr-Reduced Carboxamidomethylated and Maleylated Lysozyme as substrate (FIGS. 1 and 2). Addition of the reducing agent TCEP alone had no substantial effect in PTP1B activity was assessed.

PTP1B-OX = molecular target: T3, PTP1B-OX (Homo sapiens, UniProt P18031); experiment: In vitro binding assay, purified recombinant PTP1B (37 kDa) and purified scFv, Ni-NTA pull down; details: purified proteins, scFv in molar excess, 2 hours at 4° C.; FIG. 9
T3 construct: made in house; host or cells: E. coli BL21 (pET19b)
T3 sequence (P18031 3-277): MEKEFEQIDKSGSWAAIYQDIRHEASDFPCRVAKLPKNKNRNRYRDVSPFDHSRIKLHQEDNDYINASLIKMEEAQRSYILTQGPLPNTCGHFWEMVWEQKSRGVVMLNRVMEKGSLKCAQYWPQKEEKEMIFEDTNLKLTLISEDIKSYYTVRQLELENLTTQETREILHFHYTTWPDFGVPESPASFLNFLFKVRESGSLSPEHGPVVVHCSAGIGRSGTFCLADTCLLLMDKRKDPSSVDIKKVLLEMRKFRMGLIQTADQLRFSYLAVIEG
Method: as §1, §2

B1: scFv20: scFv, SEQ ID NO: 53 (protein)
scFv: MKKTAIAIAVALAGFATVAQAALTQPSSVSANLGGIVEITCSGSSGSYGWYQQKSPGSAPVTVIYYNDKRPSNIPSRFSGSGSGSTNTLTIAGVRAEDEAVYYCGNEDSSGAAFGAGTTLTVLGQSSRSSAVTLDESGGGLQTPGGGLSLVCKASGFTFSDYDMFWVRQAPSKGLEFVAAITSSGTGTKYGAAVKGRATISKDNGQRTVRLQLNSLGAEDTGTYYCARSDADSTTWSAGEIDAWGHGTEVIVSSTSGQAGQHHHHHHGAYPYDVPDYAS
B1 was tested, and the “binding to PTP1B under reducing condition in vitro” value [1] was “no significant binding”, the “direct effect on PTP1B activity” value (PTP1B (reduced, active)) was “no direct inhibition of PTP activity” and the “binding to PTP1B-OX in vitro” value (PTP1B-OX) was “no significant binding”.
